# Results from the supplement of paper PMC9112550, “Optimization of the antimicrobial peptide Bac7 by deep mutational scanning” (BMC Biology, 2022).
# System: Escherichia coli TOP10
# Assay: shrunken log2 fold change of peptide-encoding DNA abundance (4.5 h post-induction vs induction); higher = less antimicrobial activity (less host growth inhibition)
# Settings: time post-induction: 4.5 h; library: site-saturation at positions 5, 18, 19, 20
# 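Also: peptides expressed intracellularly from a pBAD plasmid library in pooled LB shake-flask culture, induced with 0.3% L-arabinose, DNA abundance read by NGS, three biological replicates, DESeq2 with apeglm shrinkage.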
row,Sequence,shrunken log2 fold change
1,RRIRYRPPRLPRPRPRPVPWPRP,0.277
2,RRIRDRPPRLPRPRPRPHIKPRP,-0.598
3,RRIRFRPPRLPRPRPRPPWHPRP,0.087
4,RRIRFRPPRLPRPRPRPWSGPRP,-0.221
5,RRIRDRPPRLPRPRPRPADLPRP,-0.0491
6,RRIRQRPPRLPRPRPRPFNKPRP,-0.0963
7,RRIRTRPPRLPRPRPRPNQQPRP,0.00192
8,RRIRKRPPRLPRPRPRPDACPRP,0.00649
9,RRIRIRPPRLPRPRPRPIQDPRP,-0.205
10,RRIRERPPRLPRPRPRPEDSPRP,0.00699
11,RRIRFRPPRLPRPRPRPCAFPRP,-0.393
12,RRIRYRPPRLPRPRPRPPVSPRP,-0.378
13,RRIRVRPPRLPRPRPRPINRPRP,-0.239
14,RRIRSRPPRLPRPRPRPGEGPRP,0.367
15,RRIRCRPPRLPRPRPRPSNIPRP,-0.319
16,RRIRVRPPRLPRPRPRPPLVPRP,0.227
17,RRIRHRPPRLPRPRPRPNNHPRP,-0.915
18,RRIRHRPPRLPRPRPRPCYHPRP,-0.00149
19,RRIRMRPPRLPRPRPRPPNSPRP,0.128
20,RRIRDRPPRLPRPRPRPGIDPRP,-0.245

row,Sequence,shrunken log2 fold change
1,RRIRQRPPRLPRPRPRPIHSPRP,-0.138
2,RRIRLRPPRLPRPRPRPLDYPRP,-0.157
3,RRIRQRPPRLPRPRPRPTYNPRP,-0.591
4,RRIRIRPPRLPRPRPRPDEAPRP,0.0301
5,RRIRVRPPRLPRPRPRPWIVPRP,-0.266
6,RRIRERPPRLPRPRPRPCKTPRP,0.0029
7,RRIRKRPPRLPRPRPRPMHEPRP,0.191
8,RRIRGRPPRLPRPRPRPGQCPRP,0.275
9,RRIRARPPRLPRPRPRPMATPRP,0.601
10,RRIRARPPRLPRPRPRPTFYPRP,-0.00745
11,RRIRCRPPRLPRPRPRPGYNPRP,-0.88
12,RRIRFRPPRLPRPRPRPAPIPRP,0.108
13,RRIRKRPPRLPRPRPRPTYIPRP,-0.154
14,RRIRLRPPRLPRPRPRPPWQPRP,0.594
15,RRIRERPPRLPRPRPRPRFNPRP,-0.453
16,RRIRTRPPRLPRPRPRPQEMPRP,-0.0617
17,RRIRLRPPRLPRPRPRPTDVPRP,-0.524
18,RRIRIRPPRLPRPRPRPDIIPRP,-0.0935
19,RRIRRRPPRLPRPRPRPPQWPRP,0.66
20,RRIRHRPPRLPRPRPRPGHQPRP,-0.149

row,Sequence,shrunken log2 fold change
1,RRIRIRPPRLPRPRPRPMFDPRP,-0.0483
2,RRIRYRPPRLPRPRPRPKGNPRP,-0.423
3,RRIRNRPPRLPRPRPRPAHAPRP,0.116
4,RRIRMRPPRLPRPRPRPVGAPRP,1.34
5,RRIRHRPPRLPRPRPRPTTRPRP,0.383
6,RRIRPRPPRLPRPRPRPCILPRP,-1.04
7,RRIRHRPPRLPRPRPRPMECPRP,-0.427
8,RRIRKRPPRLPRPRPRPSPRPRP,1.04
9,RRIRFRPPRLPRPRPRPAWPPRP,0.268
10,RRIRLRPPRLPRPRPRPNLEPRP,0.0534
11,RRIRKRPPRLPRPRPRPPAMPRP,0.635
12,RRIRLRPPRLPRPRPRPNEAPRP,0.278
13,RRIRLRPPRLPRPRPRPKNCPRP,-0.5
14,RRIRTRPPRLPRPRPRPLNDPRP,-0.192
15,RRIRRRPPRLPRPRPRPQHCPRP,-0.0448
16,RRIRDRPPRLPRPRPRPHPTPRP,0.0176
17,RRIRKRPPRLPRPRPRPKEDPRP,0.795
18,RRIRIRPPRLPRPRPRPEHYPRP,-0.295
19,RRIRIRPPRLPRPRPRPSLRPRP,-0.72
20,RRIRHRPPRLPRPRPRPTSQPRP,-0.00232
